Test results reported in the supplement of paper PMC7877785.
± gives the uncertainty stated by the source.

Assay: self-splicing fitness, log relative to wild type (ln ratio); higher = more splicing; Tetrahymena group I intron in knt gene, E. coli kanamycin selection, DiMSum; sequences stand for … in CUCUCU…GGAGGGAAAAGUUAUCAGGCAUGCACCUGGUAGCUAGUCUUUAAACCAAUAGAUUGCAUCGGUUUAAAAGGCAAGACCGUCAAAUUGCGGGAAAGGGGUCAACAGCCGUUCAGUACCAAGUCUCAGGGGAAACUUUGAGAUGGCCUUGCAAAGGGUAUGGUAAUAAGCUGACGGACAUGGUCCUAACCACGCAGCCAAGUCCUAAGUCAACAGAUCUUCUGUUGAUAUGGAUGCAGUUCACAGACUAAAUGUCGGUCGGGGAAGAUGUAUUCUUCUCAUAAGAUAUAGUCGGACCUCUCCUUAAUGGGAGCUAGCGGAUGAAGUGAUGCAACACUGGAGCCGCUGGGAACUAAUUUGUAUGCGAAAGUAUAUUGAUUAGUUUUGGAGUACUCGUGGUCG
How it was run: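 Six replicate transformations of E. coli BL21(DE3) with a pET-22b(+) library were grown overnight at 37°C or 30°C. The library randomised all eight P1ex-region intron nucleotides, the intron lying in the knt kanamycin-resistance gene, and plates were LB agar with or without 25 μg/mL kanamycin plus 100 μg/mL carbenicillin, 50 μM IPTG and 0.2% rhamnose. Pooled colonies were amplicon-sequenced on an Illumina HiSeq 2500, and fitness is the DiMSum error-weighted combination of wild-type-normalised replicate fold changes, kanamycin versus none.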

| Sequence | self-splicing fitness (ln) (30 °C) | self-splicing fitness (ln) (37 °C) |
| --- | --- | --- |
| GAACAGCAAUAUUACGGCCU | -1.14 ± 0.11 | -0.067 ± 0.14 |
| GAACAGCAAUAUUACGGCUG | -2.78 ± 0.14 | -2.06 ± 0.15 |
| GAACAGCAAUAUUACGGUAA | -1.2 ± 0.059 | -0.286 ± 0.064 |
| GAACAGCAAUAUUACGGUAU | -0.973 ± 0.053 | -0.269 ± 0.074 |
| GAACAGCAAUAUUACGGUUU | -3.41 ± 0.13 | -1.34 ± 0.14 |
| GAACAGCAAUAUUACGUCAC | -3.44 ± 0.23 | -0.689 ± 0.17 |
| GAACAGCAAUAUUACGUUUC | -4.43 ± 0.14 | -2.53 ± 0.14 |
| GAAGAGCAAUAUUACGAAUA |  | -1.63 ± 0.35 |
| GAAGAGCAAUAUUACGAAUG | -2.23 ± 0.4 |  |
| GAAGAGCAAUAUUACGACCA | -1.34 ± 0.14 | -1.46 ± 0.36 |
| GAAGAGCAAUAUUACGACGA |  | -2.03 ± 0.42 |
| GAAGAGCAAUAUUACGAGCG | -3.17 ± 0.2 | -0.882 ± 0.17 |
| GAAGAGCAAUAUUACGAGUA | -3.78 ± 0.37 | -2.75 ± 0.38 |
| GAAGAGCAAUAUUACGAGUU | -2.61 ± 0.16 | -2.03 ± 0.21 |
| GAAGAGCAAUAUUACGAUCU | -1.21 ± 0.14 | -0.955 ± 0.18 |
| GAAGAGCAAUAUUACGAUUU | -1.31 ± 0.079 | -1.04 ± 0.14 |
| GAAGAGCAAUAUUACGCCCU | -2.24 ± 0.22 | -1.38 ± 0.31 |
| GAAGAGCAAUAUUACGCCGU | -2.88 ± 0.44 | -2.96 ± 0.43 |
| GAAGAGCAAUAUUACGCGCG | -2.21 ± 0.3 | -1.36 ± 0.22 |
| GAAGAGCAAUAUUACGCGUG | -2.43 ± 0.078 | -1.32 ± 0.085 |
| GAAGAGCAAUAUUACGCUCG | -2.32 ± 0.21 | -1.37 ± 0.21 |
| GAAGAGCAAUAUUACGCUCU | -3.53 ± 0.23 | -2.74 ± 0.24 |
| GAAGAGCAAUAUUACGGAAC |  | -0.903 ± 0.29 |
| GAAGAGCAAUAUUACGGAGA | -3.22 ± 0.31 | -1.88 ± 0.32 |
| GAAGAGCAAUAUUACGGCAU | -1.96 ± 0.12 | -1.99 ± 0.17 |

| Sequence | self-splicing fitness (ln) (30 °C) | self-splicing fitness (ln) (37 °C) |
| --- | --- | --- |
| GAAGAGCAAUAUUACGGGAG | -3.15 ± 0.19 | -2.19 ± 0.23 |
| GAAGAGCAAUAUUACGGGGG | -3.04 ± 0.2 | -3.06 ± 0.29 |
| GAAGAGCAAUAUUACGGUUU | -1.52 ± 0.12 | -0.796 ± 0.16 |
| GAAGAGCAAUAUUACGUACU | -2.11 ± 0.15 | -0.163 ± 0.13 |
| GAAGAGCAAUAUUACGUUCA | -1.33 ± 0.13 | -0.0689 ± 0.13 |
| GAAGAGCAAUAUUACGUUCU | -3.88 ± 0.29 | -2.8 ± 0.27 |
| GAAUAGCAAUAUUACGAAGU |  | -2.45 ± 0.2 |
| GAAUAGCAAUAUUACGACCG | -1.03 ± 0.16 | -0.447 ± 0.2 |
| GAAUAGCAAUAUUACGAUAU | -1.43 ± 0.068 | -0.744 ± 0.085 |
| GAAUAGCAAUAUUACGAUGU | -1.3 ± 0.076 | -1.04 ± 0.12 |
| GAAUAGCAAUAUUACGCAAG | -2.44 ± 0.17 | -1.54 ± 0.15 |
| GAAUAGCAAUAUUACGCACG | -1.22 ± 0.15 | -0.764 ± 0.2 |
| GAAUAGCAAUAUUACGCAUG | -0.0618 ± 0.089 | -0.902 ± 0.091 |
| GAAUAGCAAUAUUACGCCUA | -0.724 ± 0.13 | -0.0436 ± 0.16 |
| GAAUAGCAAUAUUACGCGUG | -1.01 ± 0.075 | -0.747 ± 0.094 |
| GAAUAGCAAUAUUACGGAGC | -3.44 ± 0.26 | -1.77 ± 0.21 |
| GAAUAGCAAUAUUACGGCCG | -0.339 ± 0.18 | -0.0585 ± 0.21 |
| GAAUAGCAAUAUUACGGCCU | -0.86 ± 0.075 | 0.112 ± 0.12 |
| GAAUAGCAAUAUUACGGGUU | -2.48 ± 0.14 | -1.86 ± 0.17 |
| GAAUAGCAAUAUUACGGUAU | -3.54 ± 0.18 | -1.32 ± 0.16 |
| GAAUAGCAAUAUUACGGUUC | -3.69 ± 0.17 | -3.25 ± 0.33 |
| GAAUAGCAAUAUUACGUAAC | -0.941 ± 0.11 | -1.63 ± 0.12 |
| GAAUAGCAAUAUUACGUAGA | -3.35 ± 0.15 | -1.55 ± 0.11 |
| GAAUAGCAAUAUUACGUCAU | -1.07 ± 0.1 | -0.865 ± 0.13 |
